Drawing on patent US20040038876A1, this text covers Ptc binding for 29 substances.

The target of this assay is Ptc-1. Briefly: Ptc-1 binding assay, format not described.
“mutant 19 (Shh C1II/A169C + Y57C), 5 K PEG (from UniProt Q15465 25-197) (ligand)” registered a Ptc binding of 3 nM. For “mutant 21 (Shh C1II/A169C + N92C), 5 K PEG (from UniProt Q15465 25-197) (ligand)” the value was 35 nM; for “Shh C1II/A169C, unmodified (from UniProt Q15465 25-197) (ligand)”, 1.1 nM. In the case of “mutant 24 (Shh C1II/A169C + S112C), NEM-modified (from UniProt Q15465 25-197) (ligand)”, the Ptc binding is 0.6 nM. “mutant 44 (Shh C1II/A169C + E113C), 5 K PEG (from UniProt Q15465 25-197) (ligand)” gave a Ptc binding of 12 nM. “Shh C1II/A169C, 5 K PEG (from UniProt Q15465 25-197) (ligand)” came in with a Ptc binding of 1 nM. Substance “mutant 17 (Shh C1II/A169C + N27C), NEM-modified (from UniProt Q15465 25-197) (ligand)” came in with a Ptc binding of 0.3 nM. Consider “wild type Shh, NEM-modified (from UniProt Q15465 24-197) (ligand)”, for which the Ptc binding worked out at 1.4 nM. Take “Shh C1II/A169C, NEM-modified (from UniProt Q15465 25-197) (ligand)”: the Ptc binding amounted to 0.4 nM.

In turn, “mutant 19 (Shh C1II/A169C + Y57C), NEM-modified (from UniProt Q15465 25-197) (ligand)” displayed a Ptc binding of 1 nM.

Consider “wild type Shh, unmodified (from UniProt Q15465 24-197) (ligand)”, for which the Ptc binding turned out to be 2.4 nM. The substance “mutant 20 (Shh C1II/A169C + N68C), unmodified (from UniProt Q15465 25-197) (ligand)” came in with a Ptc binding of 3 nM. Under “mutant 24 (Shh C1II/A169C + S112C), 5 K PEG (from UniProt Q15465 25-197) (ligand)” stands 8 nM. Consider “mutant 20 (Shh C1II/A169C + N68C), 5 K PEG (from UniProt Q15465 25-197) (ligand)”, for which the Ptc binding was determined as 3 nM.

Turning to “mutant 22 (Shh C1II/A169C + S154C), unmodified (from UniProt Q15465 25-197) (ligand)”, the Ptc binding was found to be 3.9 nM. In turn, “mutant 18 (Shh C1II/A169C + N46C), NEM-modified (from UniProt Q15465 25-197) (ligand)” returned a Ptc binding of 2 nM. Consider “mutant 22 (Shh C1II/A169C + S154C), NEM-modified (from UniProt Q15465 25-197) (ligand)”, for which the Ptc binding is 8.3 nM.

Consider “mutant 17 (Shh C1II/A169C + N27C), 5 K PEG (from UniProt Q15465 25-197) (ligand)”, for which the Ptc binding came to 32 nM. “mutant 21 (Shh C1II/A169C + N92C), NEM-modified (from UniProt Q15465 25-197) (ligand)” showed a Ptc binding of 0.3 nM. Consider “mutant 22 (Shh C1II/A169C + S154C), 5 K PEG (from UniProt Q15465 25-197) (ligand)”, for which the Ptc binding worked out at 85 nM. Under “mutant 18 (Shh C1II/A169C + N46C), 5 K PEG (from UniProt Q15465 25-197) (ligand)” stands 2 nM; under “mutant 17 (Shh C1II/A169C + N27C), unmodified (from UniProt Q15465 25-197) (ligand)”, 1.3 nM; under “mutant 44 (Shh C1II/A169C + E113C), NEM-modified (from UniProt Q15465 25-197) (ligand)”, 0.5 nM.

Consider “mutant 25 (Shh C1II/A169C + S133C), unmodified (from UniProt Q15465 25-197) (ligand)”, for which the Ptc binding came to 3.7 nM.

In the case of “mutant 44 (Shh C1II/A169C + E113C), unmodified (from UniProt Q15465 25-197) (ligand)”, the Ptc binding stood at 2.3 nM. Turning to “mutant 25 (Shh C1II/A169C + S133C), 5 K PEG (from UniProt Q15465 25-197) (ligand)”, the Ptc binding was found to be 33 nM. In turn, “mutant 25 (Shh C1II/A169C + S133C), NEM-modified (from UniProt Q15465 25-197) (ligand)” yielded a Ptc binding of 0.4 nM. For “mutant 20 (Shh C1II/A169C + N68C), NEM-modified (from UniProt Q15465 25-197) (ligand)”, the Ptc binding stood at 2 nM.

On to “wild type Shh, 5 K PEG (from UniProt Q15465 24-197) (ligand)”, for which the Ptc binding came to 42 nM.
